This is an account of results in patent US20220380473A1, “ANTI-GAL3 ANTIBODIES AND USES THEREOF” (TrueBinding, Inc., priority 2019, published 2022).

One experiment deals with MBT-2 cells. The experiment is described as follows: MBT-2 bladder tumor model, combination with anti-PD1 or anti-PD-L1. It counts as in vivo, mouse. As to conditions: 20 mg/Kg i.p. As to the method:
To evaluate the potential for GAL3-TIM3 blocking antibodies to influence tumor biology, studies were conducted in mice bearing MBT-2 bladder tumor xenografts in combination with other antibodies targeting the immunomodulatory checkpoint molecules PD-1 and PD-L1. Briefly, 7-week old female C3H/HeJ mice (Jackson Laboratory) were anesthetized by inhalation anesthetic (3 to 5% Isoflurane in medical grade air) and 1×10^6 MBT-2 cells (Sekisui XenoTech, LLC) in 0.1 mL PBS were subcutaneously injected into the right flank by using a syringe with a 25-ga needle. 7 days after tumor implantation, mice were randomly assigned into six groups (n=9-10). Mice were administrated intraperitoneally with isotype control mIgG2b (BioXCell), anti-Gal3 (mIMT001), anti-PD1 (RMP1-14, BioXCell) plus mIgG2b, anti-PD1 (RMP1-14) plus mIMT001, anti-PDL1 (10F.9G2, BioXCell) plus mIgG2b, and anti-PDL1 (10F.9G2) plus mIMT001. Isotype control and anti-Gal3 antibodies were dosed at 20 mg/Kg on day 7, 9, 12, 14 and 16; anti-PD1 (RMP1-14 10 mg/Kg) or anti-PDL1 (10F.9G2, 5 mg/Kg) were dosed on day 8, 12, and 15. Tumor volumes and body weights were monitored twice per week. The animals were humanely sacrificed when tumor volumes or animal health reached IACUC-defined endpoints. Results were expressed as mean±SEM, with statistical analysis performed by two-way ANOVA.

Experiment [1] relates to STAM HFD-CDAA mouse model of liver fibrosis. Put plainly: STAM CDAA-HFD mouse model of liver fibrosis. It counts as in vivo. As to the method:
To confirm that the observed reduction of liver fibrosis in the MCD mouse model was not unique to this setting, the activity of mIMT001 was explored in the STAM HFD-CDAA mouse model of liver fibrosis. Briefly, Two-day-old male C57Bl/6 mice were injected by a single subcutaneous injection of 200 ug of streptozotocin to cause islet destruction and then fed CDAA-high fat diet (Research Diet #A06071302) starting at 4 weeks of age and continuing for the entire duration of each study. At 8 weeks of age, mice were divided into two groups (seven mice each) based on ALT score. Mice were treated human anti-mIgG4 isotype control (hIgG4, 10 mg/kg) or human anti-Gal3 antibody (IMT001-4, 10 mg/kg) twice a week by intraperitoneal injection for 4 weeks. All animal care and procedures were approved by the Immutics IACUC.

Experiment [2] deals with α-smooth muscle actin (SMA) and fibronectin. Put plainly: UUO mouse kidney fibrosis, western blot of fibrosis markers (Example 19). It counts as in vivo. The note with it: 10 mg/kg i.p., 14 day treatment, vs IgG2b control. The method, then: Unilateral […] obstruction (UUO) mouse model was created with 8-week old male C57BL/6 mice. The animals were randomly assigned into three groups (n=5); sham, mouse IgG2b control, and IMT001. […] On day 0, surgery was performed to ligate the left ureter in each animal. Following the surgery, the animals were administrated intraperitoneally either 10 mg/kg of mIgG2b (BioXCell) or IMT001 on day 1, 5 and 10. The animals in the sham group were left untreated. On day 4, 8 and 15 the animals were humanely sacrificed and left kidney tissues were surgically removed and snap frozen for western blot analysis.
30 mg snap frozen kidney tissue from 14 day treatment UUO group was homogenized in 500 μl of RIPA buffer (Thermo Scientific). The homogenate was left on ice for 10 minutes and then centrifuged at 12000 rpm for 10 min at 4° C. in 1.5 mL Eppendorf tubes. The supernatant containing protein was collected and was quantified by A280 absorbance with a Nanodrop (ThermoFisher). Protein samples were boiled in 4× sample Buffer containing β-mercaptoethanol (Bio-Rad) for 10 min. […] The membranes were washed three times with PBST and protein bands were detected by enhanced chemiluminescence using standard ECL detection methods as recommended by the manufacturer (Bio-Rad) and developed. […]

The subject of experiment [3] is human dendritic cells (DC), M1 and M2 macrophage cells. Put plainly: Flow cytometry staining of human DC, M1 and M2 macrophages. It counts as cell-based. As to conditions: 10 μg/ml. As to the method: First Human CD14 monocytes were isolated from peripheral blood mononuclear cells (PBMC) with a CD14 cell positive selection kit (Miltenyi, Auburn, Calif.) and differentiated into dendritic cells (DC), or into M1 macrophages, or into M2 macrophages in the presence of GM-CSF plus IL-4, or GM-CSF, or M-CSF (Rocky Hill, N.J.), respectively. Then flow cytometry analysis was performed to detect Gal3 expression on human dendritic cells (DC), M1 and M2 macrophage cells. In details, 100,000 DC, M1 or M2 cells were incubated with 100 μl 10% FBS HBSS solution that contains with control mIgG-biotin (BioLegend) or IMT001-biotin at 10 μg/ml on ice for 20 minutes. Then cells were washed and incubated with PE-streptavidin (BioLegend) at 1:1000 on ice for 20 min. After spinning, live/dead cells were stained with Violet dead cell stain kit (Life Technologies). Stained cells were subjected to flow analysis.

“Also recorded” adds a separate entry of the source.

B1: IMT001: anti-Gal3 monoclonal antibody (Immutics); printed as mIMT001 (IMT001), murine (antibody, V domains shown)
VH: QIQLVQSGPELKKPGETVKISCKASGYTFTNYGMNWVKQAPGKGLKWMGWINTNTGEPTYVEEFKGRFAFSLETSASTAYLQINNLKNEDTATYFCAPYDNFFAYWGQGTLVTVSA
VL: DIVITQDELSNPVTSGESVSISCRSSKSLLYKDGKTYLNWFLQRPGQSPQLLIYLMSTHASGVSDRFSGSGSGTDFTLEISRVKAEDVGVYYCQQLVDYPLTFGAGTKLELK
As to B1, the “effect on tumor volume, single agent” value with MBT-2 cells is given as “did not exhibit any significant decrement in tumor volume; also recorded: did not reduce tumor volumes”. The “% area picosirius red staining” value in experiment [1] (liver, 10 mg/kg twice a week i.p. for 4 weeks) came out at 1.66%. For the same molecule, the “reduction of picosirius red staining” value in experiment [1] (vs isotype control) stood at 67%. In experiment [2], the “expression of fibrotic markers a-SMA and fibronectin in kidney” value is “reduced expression of both fibrotic markers”. Further, the “staining of dendritic cells and M1 macrophages” value in experiment [3] is “could not be stained”. Moreover, the “mean fluorescence intensity (MFI) of stained M2 cells vs isotype control” value in experiment [3] (human M2 macrophages) was “much higher”.
